The test concerns the target pre-translocation (PRE) complex of the E. coli 70S ribosome (E. coli) (UniProt P0A7K2). Nature of the test: stopped-flow fluorescence and FRET kinetics, global fit by numerical integration; PRE complexes (0.05 uM, six fluorescence reporters) mixed with saturating EF-G (4-5 uM), 1 mM GTP, 200 uM fusidic acid; buffer A (50 mM Tris-HCl pH 7.5, 70 mM NH4Cl, 30 mM KCl, 7 mM MgCl2), 37 °C; 5-step model, k-1/k1 constrained to 65/55 uM; KinTek Explorer.

One may read the kon as the rate constant with which the complex forms. A low value points to slow association.

Turning to “elongation factor G (from UniProt P0A6M8 1-704) (enzyme)”, the on-rate (kon) is 4.2e+07 M⁻¹ s⁻¹.

These data come from publication PMC5585275.
